Here are results for 31 molecules from patent US20240270846A1 (published 2024).

Positions count from the first letter of the chain named. Numbers in names are those of the source.

This assay deals with T1, CD3 epsilon homodimer protein (UniProt P07766 23-126).
T1 construct: Construct of the homodimer protein is not described; also called CD3 (CD3 epsilon)
As to the kind of experiment: SPR (Biacore T200), CD3 epsilon homodimer on CM4 chip, one-arm antibody as analyte; ratio to unaltered CE115HA000.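 Note: surface plasmon resonance run at 25 °C with HBS-EP+ as running buffer, CD3 epsilon homodimer attached by amine coupling, antibody passed over as analyte.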

T1 sequence (P07766 23-126): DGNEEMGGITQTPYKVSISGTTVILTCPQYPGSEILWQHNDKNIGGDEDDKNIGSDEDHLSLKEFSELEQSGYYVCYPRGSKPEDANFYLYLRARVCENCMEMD

B1: CE115HA000 A102I one-arm antibody (antibody, human IgG1, kappa, L234A L235A, N297A, name in Kabat numbering)
heavy: QVQLVESGGGVVQPGRSLRLSCAASGFTFSNAWMHWVRQAPGKGLEWVAQIKAKSNNYATYYAESVKGRFTISRDDSKNSLYLQMNSLKTEDTAVYYCRYVHYGAYYGVDIWGQGTTVTVSSASTKGPSVFPLAPSSKSTSGGTAALGCLVKDYFPEPVTVSWNSGALTSGVHTFPAVLQSSGLYSLSSVVTVPSSSLGTQTYICNVNHKPSNTKVDKKVEPKSCDKTHTCPPCPAPEAAGGPSVFLFPPKPKDTLMISRTPEVTCVVVDVSHEDPEVKFNWYVDGVEVHNAKTKPREEQYASTYRVVSVLTVLHQDWLNGKEYKCKVSNKALPAPIEKTISKAKGQPREPQVYTLPPSRCELTKNQVSLSCAVKGFYPSDIAVEWESNGQPENNYKTTPPVLDSDGSFFLVSKLTVDKSRWQQGNVFSCSVMHEALHNHYTQKSLSLSPDYKDDDDK
chain: EPKSSDKTHTCPPCPAPELLGGPSVFLFPPKPKDTLMISRTPEVTCVVVDVSHEDPEVKFNWYVDGVEVHNAKTKPREEQYNSTYRVVSVLTVLHQDWLNGKEYKCKVSNKALPAPIEKTISKAKGQPREPQVCTLPPSRDELTKNQVSLWCLVKGFYPSDIAVEWESNGQPENNYKTTPPVLDSDGSFFLYSKLTVDKSRWQQGNVFSCSVMHEALHNRYTQKSLSLSP
light: DIVMTQSPLSLPVTPGEPASISCRSSQSLVHSNRNTYLHWYQQKPGQAPRLLIYKVSNRFSGVPDRFSGSGSGTDFTLKISRVEAEDVGVYYCGQGTQVPYTFGQGTKLEIKRTVAAPSVFIFPPSDEQLKSGTASVVCLLNNFYPREAKVQWKVDNALQSGNSQESVTEQDSKDSTYSLSSTLTLSKADYEKHKVYACEVTHQGLSSPVTKSFNRGEC
notes: one-arm antibody
Regarding B1, the “KD ratio (KD value of CE115HA000/KD value of the altered form)” value (“KD ratio” for short) is 1.29.

B2: CE115HA000 G65E one-arm antibody (antibody, human IgG1, kappa, L234A L235A, N297A, name in Kabat numbering)
heavy: B1 heavy with G68E, I111A
chain: B1 chain
light: B1 light
notes: one-arm antibody
As for B2, the “KD ratio” value was determined as 0.61.

B3: CE115HA000 D72V one-arm antibody (antibody, human IgG1, kappa, L234A L235A, N297A, name in Kabat numbering)
heavy: B1 heavy with D75V, I111A
chain: B1 chain
light: B1 light
notes: one-arm antibody
As to B3, the “KD ratio” value was 1.17.

B4: CE115HA000 D73T one-arm antibody (antibody, human IgG1, kappa, L234A L235A, N297A, name in Kabat numbering)
heavy: B1 heavy with D76T, I111A
chain: B1 chain
light: B1 light
notes: one-arm antibody
As for B4, the “KD ratio” value was found to be 0.78.

B5: CE115HA000 G65D one-arm antibody (antibody, human IgG1, kappa, L234A L235A, N297A, name in Kabat numbering)
heavy: B1 heavy with G68D, I111A
chain: B1 chain
light: B1 light
notes: one-arm antibody
As for B5, the “KD ratio” value is 0.61.

B6: CE115HA000 D72E one-arm antibody (antibody, human IgG1, kappa, L234A L235A, N297A, name in Kabat numbering)
heavy: B1 heavy with D75E, I111A
chain: B1 chain
light: B1 light
notes: one-arm antibody
Regarding B6, the “KD ratio” value amounted to 0.73.

B7: CE115HA000 D101P one-arm antibody (antibody, human IgG1, kappa, L234A L235A, N297A, name in Kabat numbering)
heavy: B1 heavy with D110P, I111A
chain: B1 chain
light: B1 light
notes: one-arm antibody
For B7, the “KD ratio” value was 43.4.

B8: CE115HA000 D72A one-arm antibody (antibody, human IgG1, kappa, L234A L235A, N297A, name in Kabat numbering)
heavy: B1 heavy with D75A, I111A
chain: B1 chain
light: B1 light
notes: one-arm antibody
Turning to B8, the “KD ratio” value is 1.19.

B9: CE115HA000 D101N one-arm antibody (antibody, human IgG1, kappa, L234A L235A, N297A, name in Kabat numbering)
heavy: B1 heavy with D110N, I111A
chain: B1 chain
light: B1 light
notes: one-arm antibody
B9: the “KD ratio” value amounted to 2.28.

B10: CE115HA000 D101I one-arm antibody (antibody, human IgG1, kappa, L234A L235A, N297A, name in Kabat numbering)
heavy: B1 heavy with D110I, I111A
chain: B1 chain
light: B1 light
notes: one-arm antibody
For B10, the “KD ratio” value was determined as 1.73.

B11: CE115HA000 D73K one-arm antibody (antibody, human IgG1, kappa, L234A L235A, N297A, name in Kabat numbering)
heavy: B1 heavy with D76K, I111A
chain: B1 chain
light: B1 light
notes: one-arm antibody
On to B11, for which the “KD ratio” value was 0.74.

B12: CE115HA000 A102V one-arm antibody (antibody, human IgG1, kappa, L234A L235A, N297A, name in Kabat numbering)
heavy: B1 heavy with I111V
chain: B1 chain
light: B1 light
notes: one-arm antibody
For B12, the “KD ratio” value was 1.27.

B13: CE115HA000 D73R one-arm antibody (antibody, human IgG1, kappa, L234A L235A, N297A, name in Kabat numbering)
heavy: B1 heavy with D76R, I111A
chain: B1 chain
light: B1 light
notes: one-arm antibody
B13: the “KD ratio” value turned out to be 0.79.

B14: CE115HA000 D101T one-arm antibody (antibody, human IgG1, kappa, L234A L235A, N297A, name in Kabat numbering)
heavy: B1 heavy with D110T, I111A
chain: B1 chain
light: B1 light
notes: one-arm antibody
For B14, the “KD ratio” value was 0.62.

B15: CE115HA000 D101V one-arm antibody (antibody, human IgG1, kappa, L234A L235A, N297A, name in Kabat numbering)
heavy: B1 heavy with D110V, I111A
chain: B1 chain
light: B1 light
notes: one-arm antibody
In the case of B15, the “KD ratio” value was 1.18.

B16: CE115HA000 D101H one-arm antibody (antibody, human IgG1, kappa, L234A L235A, N297A, name in Kabat numbering)
heavy: B1 heavy with D110H, I111A
chain: B1 chain
light: B1 light
notes: one-arm antibody
Turning to B16, the “KD ratio” value is 0.91.

B17: CE115HA000 D101R one-arm antibody (antibody, human IgG1, kappa, L234A L235A, N297A, name in Kabat numbering)
heavy: B1 heavy with D110R, I111A
chain: B1 chain
light: B1 light
notes: one-arm antibody
Regarding B17, the “KD ratio” value turned out to be 5.66.

B18: CE115HA000 D101K one-arm antibody (antibody, human IgG1, kappa, L234A L235A, N297A, name in Kabat numbering)
heavy: B1 heavy with D110K, I111A
chain: B1 chain
light: B1 light
notes: one-arm antibody
As to B18, the “KD ratio” value is 4.37.

B19: CE115HA000 D101S one-arm antibody (antibody, human IgG1, kappa, L234A L235A, N297A, name in Kabat numbering)
heavy: B1 heavy with D110S, I111A
chain: B1 chain
light: B1 light
notes: one-arm antibody
As for B19, the “KD ratio” value is 0.91.

B20: CE115HA000 D73N one-arm antibody (antibody, human IgG1, kappa, L234A L235A, N297A, name in Kabat numbering)
heavy: B1 heavy with D76N, I111A
chain: B1 chain
light: B1 light
notes: one-arm antibody
B20: the “KD ratio” value came to 0.7.

B21: CE115HA000 D73A one-arm antibody (antibody, human IgG1, kappa, L234A L235A, N297A, name in Kabat numbering)
heavy: B1 heavy with D76A, I111A
chain: B1 chain
light: B1 light
notes: one-arm antibody
For the molecule B21, the “KD ratio” value was 0.73.

B22: CE115HA000 D101M one-arm antibody (antibody, human IgG1, kappa, L234A L235A, N297A, name in Kabat numbering)
heavy: B1 heavy with D110M, I111A
chain: B1 chain
light: B1 light
notes: one-arm antibody
Turning to B22, the “KD ratio” value came to 1.94.

B23: CE115HA000 D101Q one-arm antibody (antibody, human IgG1, kappa, L234A L235A, N297A, name in Kabat numbering)
heavy: B1 heavy with D110Q, I111A
chain: B1 chain
light: B1 light
notes: one-arm antibody
With B23, the “KD ratio” value was 3.55.

B24: CE115HA000 D73E one-arm antibody (antibody, human IgG1, kappa, L234A L235A, N297A, name in Kabat numbering)
heavy: B1 heavy with D76E, I111A
chain: B1 chain
light: B1 light
notes: one-arm antibody
Consider B24, for which the “KD ratio” value was 0.56.

B25: CE115HA000 D101G one-arm antibody (antibody, human IgG1, kappa, L234A L235A, N297A, name in Kabat numbering)
heavy: B1 heavy with D110G, I111A
chain: B1 chain
light: B1 light
notes: one-arm antibody
For B25, the “KD ratio” value came to 3.16.

B26: CE115HA000 D101L one-arm antibody (antibody, human IgG1, kappa, L234A L235A, N297A, name in Kabat numbering)
heavy: B1 heavy with D110L, I111A
chain: B1 chain
light: B1 light
notes: one-arm antibody
For B26, the “KD ratio” value came out at 0.71.

B27: CE115HA000 D101Y one-arm antibody (antibody, human IgG1, kappa, L234A L235A, N297A, name in Kabat numbering)
heavy: B1 heavy with D110Y, I111A
chain: B1 chain
light: B1 light
notes: one-arm antibody
With B27, the “KD ratio” value was 0.97.

B28: CE115HA000 D73G one-arm antibody (antibody, human IgG1, kappa, L234A L235A, N297A, name in Kabat numbering)
heavy: B1 heavy with D76G, I111A
chain: B1 chain
light: B1 light
notes: one-arm antibody
Consider B28, for which the “KD ratio” value turned out to be 0.78.

B29: CE115HA000 A102P one-arm antibody (antibody, human IgG1, kappa, L234A L235A, N297A, name in Kabat numbering)
heavy: B1 heavy with I111P
chain: B1 chain
light: B1 light
notes: one-arm antibody
In the case of B29, the “KD ratio” value came to 3.51.

B30: CE115HA000 D101F one-arm antibody (antibody, human IgG1, kappa, L234A L235A, N297A, name in Kabat numbering)
heavy: B1 heavy with D110F, I111A
chain: B1 chain
light: B1 light
notes: one-arm antibody
In the case of B30, the “KD ratio” value was 0.73.

B31: CE115HA000 A102Y one-arm antibody (antibody, human IgG1, kappa, L234A L235A, N297A, name in Kabat numbering)
heavy: B1 heavy with I111Y
chain: B1 chain
light: B1 light
notes: one-arm antibody
As for B31, the “KD ratio” value is 1.
